Results: patent US20130005646A1 (Novo Nordisk, published 2013)
Starred links: 1 amine or outer side, 2 acyl side, 3 side chain; linkers in the order of their positions; H or OH if unused. Positions of bridges follow the written chain, without caps; N, C: chain ends. Groups on a side chain read outwards from the residue. No end group written: not given here. *: point of attachment. C20 diacid = O=C(O)CCCCCCCCCCCCCCCCCCC(=O)*; γGlu = O=C(O)[C@H](CCC(=O)[*:2])N[*:1]; AEEA = NCCOCCOCC(=O)O

T1: human amylin 3(a) receptor (human calcitonin receptor + RAMP-3) (human, UniProt P30988 25-474; O60896 24-148)
T1 sequence (looked up) 1: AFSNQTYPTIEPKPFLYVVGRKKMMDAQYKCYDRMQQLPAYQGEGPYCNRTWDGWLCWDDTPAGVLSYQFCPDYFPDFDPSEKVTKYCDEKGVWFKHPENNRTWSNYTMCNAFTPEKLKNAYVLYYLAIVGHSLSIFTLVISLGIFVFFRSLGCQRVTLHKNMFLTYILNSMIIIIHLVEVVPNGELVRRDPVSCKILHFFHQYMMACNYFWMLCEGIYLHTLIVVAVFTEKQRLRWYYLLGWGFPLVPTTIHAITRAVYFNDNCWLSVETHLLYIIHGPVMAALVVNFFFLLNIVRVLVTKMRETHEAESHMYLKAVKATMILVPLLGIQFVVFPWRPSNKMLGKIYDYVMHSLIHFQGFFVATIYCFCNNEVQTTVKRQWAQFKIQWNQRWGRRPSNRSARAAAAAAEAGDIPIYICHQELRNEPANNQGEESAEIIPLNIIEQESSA
T1 sequence (looked up) 2: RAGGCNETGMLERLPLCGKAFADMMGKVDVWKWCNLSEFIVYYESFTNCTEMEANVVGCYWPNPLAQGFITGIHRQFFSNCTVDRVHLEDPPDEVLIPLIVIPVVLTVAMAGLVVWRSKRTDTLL

T2: human calcitonin (a) receptor (human, UniProt P30988 25-474)
T2 sequence (looked up): T1 sequence (looked up) 1

B1: N-alpha-[(S)-4-Carboxy-4-(19-carboxynonadecanoylamino)butyryl]-[Glu14,His17,Gln21,Pro37]-pramlintide (peptide)
peptide: {C20 diacid-γGlu}-KCNTATCATQRLAEFLHHSSQNFGPILPPTNVGSNTP-NH2
modifications: disulfide 2-7
SMILES: CC[C@H](C)[C@H](NC(=O)[C@@H]1CCCN1C(=O)CNC(=O)[C@H](Cc1ccccc1)NC(=O)[C@H](CC(N)=O)NC(=O)[C@H](CCC(N)=O)NC(=O)[C@H](CO)NC(=O)[C@H](CO)NC(=O)[C@H](Cc1c[nH]cn1)NC(=O)[C@H](Cc1c[nH]cn1)NC(=O)[C@H](CC(C)C)NC(=O)[C@H](Cc1ccccc1)NC(=O)[C@H](CCC(=O)O)NC(=O)[C@H](C)NC(=O)[C@H](CC(C)C)NC(=O)[C@H](CCCNC(=N)N)NC(=O)[C@H](CCC(N)=O)NC(=O)[C@@H](NC(=O)[C@H](C)NC(=O)[C@@H]1CSSC[C@H](NC(=O)[C@H](CCCCN)NC(=O)CC[C@H](NC(=O)CCCCCCCCCCCCCCCCCCC(=O)O)C(=O)O)C(=O)N[C@@H](CC(N)=O)C(=O)N[C@@H]([C@@H](C)O)C(=O)N[C@@H](C)C(=O)N[C@@H]([C@@H](C)O)C(=O)N1)[C@@H](C)O)C(=O)N[C@@H](CC(C)C)C(=O)N1CCC[C@H]1C(=O)N1CCC[C@H]1C(=O)N[C@H](C(=O)N[C@@H](CC(N)=O)C(=O)N[C@H](C(=O)NCC(=O)N[C@@H](CO)C(=O)N[C@@H](CC(N)=O)C(=O)N[C@H](C(=O)N1CCC[C@H]1C(N)=O)[C@@H](C)O)C(C)C)[C@@H](C)O
B2: N-alpha-[(S)-4-Carboxy-4-(19-carboxynonadecanoylamino)butyryl]-[Glu14,His17,Gln21,Gln35,Pro37]-pramlintide (peptide)
peptide: {C20 diacid-γGlu}-KCNTATCATQRLAEFLHHSSQNFGPILPPTNVGSQTP-NH2
modifications: disulfide 2-7
SMILES: CC[C@H](C)[C@H](NC(=O)[C@@H]1CCCN1C(=O)CNC(=O)[C@H](Cc1ccccc1)NC(=O)[C@H](CC(N)=O)NC(=O)[C@H](CCC(N)=O)NC(=O)[C@H](CO)NC(=O)[C@H](CO)NC(=O)[C@H](Cc1c[nH]cn1)NC(=O)[C@H](Cc1c[nH]cn1)NC(=O)[C@H](CC(C)C)NC(=O)[C@H](Cc1ccccc1)NC(=O)[C@H](CCC(=O)O)NC(=O)[C@H](C)NC(=O)[C@H](CC(C)C)NC(=O)[C@H](CCCNC(=N)N)NC(=O)[C@H](CCC(N)=O)NC(=O)[C@@H](NC(=O)[C@H](C)NC(=O)[C@@H]1CSSC[C@H](NC(=O)[C@H](CCCCN)NC(=O)CC[C@H](NC(=O)CCCCCCCCCCCCCCCCCCC(=O)O)C(=O)O)C(=O)N[C@@H](CC(N)=O)C(=O)N[C@@H]([C@@H](C)O)C(=O)N[C@@H](C)C(=O)N[C@@H]([C@@H](C)O)C(=O)N1)[C@@H](C)O)C(=O)N[C@@H](CC(C)C)C(=O)N1CCC[C@H]1C(=O)N1CCC[C@H]1C(=O)N[C@H](C(=O)N[C@@H](CC(N)=O)C(=O)N[C@H](C(=O)NCC(=O)N[C@@H](CO)C(=O)N[C@@H](CCC(N)=O)C(=O)N[C@H](C(=O)N1CCC[C@H]1C(N)=O)[C@@H](C)O)C(C)C)[C@@H](C)O
B3: N-alpha-[(S)-4-Carboxy-4-(19-carboxynonadecanoylamino)butyryl]-[Gly1,Glu14,His17,Gln21,Gln35,Pro37]-pramlintide (peptide)
peptide: {C20 diacid-γGlu}-GCNTATCATQRLAEFLHHSSQNFGPILPPTNVGSQTP-NH2
modifications: disulfide 2-7
SMILES: CC[C@H](C)[C@H](NC(=O)[C@@H]1CCCN1C(=O)CNC(=O)[C@H](Cc1ccccc1)NC(=O)[C@H](CC(N)=O)NC(=O)[C@H](CCC(N)=O)NC(=O)[C@H](CO)NC(=O)[C@H](CO)NC(=O)[C@H](Cc1c[nH]cn1)NC(=O)[C@H](Cc1c[nH]cn1)NC(=O)[C@H](CC(C)C)NC(=O)[C@H](Cc1ccccc1)NC(=O)[C@H](CCC(=O)O)NC(=O)[C@H](C)NC(=O)[C@H](CC(C)C)NC(=O)[C@H](CCCNC(=N)N)NC(=O)[C@H](CCC(N)=O)NC(=O)[C@@H](NC(=O)[C@H](C)NC(=O)[C@@H]1CSSC[C@H](NC(=O)CNC(=O)CC[C@H](NC(=O)CCCCCCCCCCCCCCCCCCC(=O)O)C(=O)O)C(=O)N[C@@H](CC(N)=O)C(=O)N[C@@H]([C@@H](C)O)C(=O)N[C@@H](C)C(=O)N[C@@H]([C@@H](C)O)C(=O)N1)[C@@H](C)O)C(=O)N[C@@H](CC(C)C)C(=O)N1CCC[C@H]1C(=O)N1CCC[C@H]1C(=O)N[C@H](C(=O)N[C@@H](CC(N)=O)C(=O)N[C@H](C(=O)NCC(=O)N[C@@H](CO)C(=O)N[C@@H](CCC(N)=O)C(=O)N[C@H](C(=O)N1CCC[C@H]1C(N)=O)[C@@H](C)O)C(C)C)[C@@H](C)O
B4: N-alpha-[(S)-4-Carboxy-4-(19-carboxynonadecanoylamino)butyryl]-[Glu14,His17,Gln35,Pro37]-pramlintide (peptide)
peptide: {C20 diacid-γGlu}-KCNTATCATQRLAEFLHHSSNNFGPILPPTNVGSQTP-NH2
modifications: disulfide 2-7
SMILES: CC[C@H](C)[C@H](NC(=O)[C@@H]1CCCN1C(=O)CNC(=O)[C@H](Cc1ccccc1)NC(=O)[C@H](CC(N)=O)NC(=O)[C@H](CC(N)=O)NC(=O)[C@H](CO)NC(=O)[C@H](CO)NC(=O)[C@H](Cc1c[nH]cn1)NC(=O)[C@H](Cc1c[nH]cn1)NC(=O)[C@H](CC(C)C)NC(=O)[C@H](Cc1ccccc1)NC(=O)[C@H](CCC(=O)O)NC(=O)[C@H](C)NC(=O)[C@H](CC(C)C)NC(=O)[C@H](CCCNC(=N)N)NC(=O)[C@H](CCC(N)=O)NC(=O)[C@@H](NC(=O)[C@H](C)NC(=O)[C@@H]1CSSC[C@H](NC(=O)[C@H](CCCCN)NC(=O)CC[C@H](NC(=O)CCCCCCCCCCCCCCCCCCC(=O)O)C(=O)O)C(=O)N[C@@H](CC(N)=O)C(=O)N[C@@H]([C@@H](C)O)C(=O)N[C@@H](C)C(=O)N[C@@H]([C@@H](C)O)C(=O)N1)[C@@H](C)O)C(=O)N[C@@H](CC(C)C)C(=O)N1CCC[C@H]1C(=O)N1CCC[C@H]1C(=O)N[C@H](C(=O)N[C@@H](CC(N)=O)C(=O)N[C@H](C(=O)NCC(=O)N[C@@H](CO)C(=O)N[C@@H](CCC(N)=O)C(=O)N[C@H](C(=O)N1CCC[C@H]1C(N)=O)[C@@H](C)O)C(C)C)[C@@H](C)O

Biological target: T1, human amylin 3(a) receptor (human …)
Test: cell-based or functional assay

| Binder | Amylin receptor human EC50 |
| --- | --- |
| B1 | 0.0555 nM |
| B2 | 0.091 nM |
| B3 | 0.12 nM |
| KCNTATCATQRLAEFLVHSSK([AEEA-AEEA-γGlu-19‑carboxyheptadecanoyl])NFGPILPPTNVGSHTY-NH2 (disulfide 2-7) | 0.999 nM |
| KCNTATCATQRLANFLHHSSHNFGK([AEEA-AEEA-γGlu-19‑carboxyheptadecanoyl])ILSSTNVGSHTY-NH2 (disulfide 2-7) | 0.39 nM |
| KCNTATCATQRLAEFLVHSSK([AEEA-AEEA-γGlu-19‑carboxyheptadecanoyl])NFGPILSSTNVGSHTY-NH2 (disulfide 2-7) | 0.858 nM |
| B4 | 0.103 nM |
| KCNTATCATQRLAEFLHHSSSNFGK([AEEA-AEEA-γGlu-19‑carboxyheptadecanoyl])ILSSTNVGSHTY-NH2 (disulfide 2-7) | 0.416 nM |

Biological target: T2, human calcitonin (a) receptor
Test: cell-based or functional assay

| Binder | CTa receptor human EC50 |
| --- | --- |
| B1 | 0.0315 nM |
| B2 | 0.045 nM |
| B3 | 0.072 nM |
| KCNTATCATQRLAEFLVHSSK([AEEA-AEEA-γGlu-19‑carboxyheptadecanoyl])NFGPILPPTNVGSHTY-NH2 (disulfide 2-7) | 0.601 nM |
| KCNTATCATQRLANFLHHSSHNFGK([AEEA-AEEA-γGlu-19‑carboxyheptadecanoyl])ILSSTNVGSHTY-NH2 (disulfide 2-7) | 0.194 nM |
| KCNTATCATQRLAEFLVHSSK([AEEA-AEEA-γGlu-19‑carboxyheptadecanoyl])NFGPILSSTNVGSHTY-NH2 (disulfide 2-7) | 0.336 nM |
| B4 | 0.097 nM |
| KCNTATCATQRLAEFLHHSSSNFGK([AEEA-AEEA-γGlu-19‑carboxyheptadecanoyl])ILSSTNVGSHTY-NH2 (disulfide 2-7) | 0.142 nM |
